Experimental data: article PMC2686270

Target: 6xHis-SpaK G392A (C-terminal half of SpaK) (Bacillus subtilis)

## 6xHis-SpaK H247Q (C-terminal half of SpaK) (domain or fragment)
  autophosphorylation restored by combining the two SpaK mutants, each inactive alone (intermolecular complementation; 32P-ATP, SDS-PAGE and autoradiography, Fig. 5B lane 6) (% of wild type): 25
